Results as given in the supplement of paper PMC10126150.
± gives the standard deviation of the averaged measurements.

System: ATP
Test: switch fluorescence ratio, 500 uM ATP over buffer (Cy3 cluster intensity, sum of 5 cycles each) (fold (ratio)); higher = stronger signal-on switching upon ATP binding; sequences stand for … in TCGTCGGCAGCGTCAGATGTGTATAAGAGACAGTTTTTTTTTTTTTTTTTTTTTTTTT…TC
Settings: aptamer strand: ATP DNA aptamer (quencher-CACCTGGGGGAGTATTGCGGAGGAAGG + anchor), 100 nM annealed; ATP concentration: 500 uM
Outline: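 Per cluster, summed Cy3 intensity from the target cycles was divided by that from the buffer cycles to give the fluorescence ratio, then averaged per switch-domain sequence. Clusters outside 100-1000 RFU were excluded. The Cy3-labelled switching-strand clusters, on a modified Illumina MiSeq flow-cell, were annealed to 100 nM quencher-labelled ATP aptamer and imaged in selection buffer, then after 15 min with 500 uM ATP at 22 °C, for five cycles with NaOH stripping and re-annealing between them.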
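Also: ATP exposure 15 min at 22 °C before imaging.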

Sequence | switch fluorescence ratio
TCATATTTTT | 1.006 ± 0.0064
TCATCAAGGG | 0.965 ± 0.012
TCATCGCATG | 1.3 ± 0.016
TCATCGGCTC | 1.32 ± 0.11
TCATCGGGGC | 1.03 ± 0.071
TCATCGGGTC | 1.05 ± 0.017
TCATCGGTTC | 1 ± 0.052
TCATCGGTTT | 0.977 ± 0.017
TCATCTACTT | 1.02 ± 0.041
TCATCTTAAT | 0.992 ± 0.044
TCATGACAGC | 1 ± 0.034
TCATGAGAGT | 0.998 ± 0.011
TCATGAGGGA | 1.02 ± 0.022
TCATGCTTGT | 0.985 ± 0.035
TCATGGAGGC | 1.02 ± 0.041
TCATGGATTT | 1.01 ± 0.026
TCATGGCACC | 1.05 ± 0.025
TCATGGCGCA | 1.07 ± 0.013
TCATGGGAAG | 1.02 ± 0.077
TCATGGGGGT | 0.995 ± 0.028
TCATGGGGTC | 0.975 ± 0.022
TCATGGGTTT | 0.997 ± 0.04
TCATGTGCAT | 1.129 ± 0.0048
TCATGTTTTG | 0.9969 ± 0.0032
TCATTAAGAT | 0.994 ± 0.053

Sequence | switch fluorescence ratio
TCATTAATAG | 0.996 ± 0.012
TCATTAGGAA | 1 ± 0.035
TCATTCCTTT | 1.008 ± 0.0063
TCATTCGGTT | 1.02 ± 0.016
TCATTCTAGG | 1.009 ± 0.0031
TCATTGGGAC | 1.06 ± 0.028
TCATTGGTAA | 0.977 ± 0.047
TCATTGTGCT | 0.975 ± 0.015
TCATTTAGAG | 0.977 ± 0.019
TCATTTAGGT | 0.967 ± 0.013
TCATTTATGT | 0.9665 ± 0.0014
TCATTTGGGA | 1.008 ± 0.0033
TCCAACTGCT | 1.037 ± 0.0035
TCCAAGGGCA | 1.01 ± 0.015
TCCACACGCT | 2.14 ± 0.25
TCCACATATC | 1.5 ± 0.0073
TCCACGATTA | 1.108 ± 0.011
TCCACTTATT | 1.05 ± 0.093
TCCAGCGCAC | 3.81 ± 1.1
TCCAGCGCGG | 1.14 ± 0.015
TCCAGGACGA | 1.05 ± 0.023
TCCAGGACTA | 1.02 ± 0.015
TCCAGGGGAT | 1.07 ± 0.12
TCCAGGGTTT | 1.06 ± 0.04
TCCAGGTTGG | 1.15 ± 0.048

Sequence | switch fluorescence ratio
TCCAGTATGG | 1.012 ± 0.008
TCCAGTTAGG | 0.998 ± 0.051
TCCATATGGT | 0.975 ± 0.023
TCCATCAGTA | 0.985 ± 0.024
TCCATGGGAT | 1.007 ± 0.0014
TCCATGTAA | 1.01 ± 0.045
TCCCACTTCG | 1.03 ± 0.053
TCCCAGTGCT | 1.84 ± 0.21
TCCCATATAT | 1.09 ± 0.014
TCCCATGTTG | 1.05 ± 0.054
TCCCCCGCCG | 1.09 ± 0.12
TCCCCCTGGT | 1.37 ± 0.069
TCCCCTGGTT | 1.64 ± 0.14
TCCCCTGTGT | 1.86 ± 0.54
TCCCGGGAAT | 0.987 ± 0.031
TCCCGGTAGT | 1.01 ± 0.019
TCCCTAACAC | 1.12 ± 0.023
TCCCTACTGT | 1.02 ± 0.017
TCCCTGGGGG | 1.08 ± 0.11
TCCCTTGGTT | 1.05 ± 0.054
TCCGACTGAT | 1.72 ± 0.05
TCCGAGATCT | 1.08 ± 0.053
TCCGAGGTTT | 1.28 ± 0.044
TCCGATGAGG | 1.05 ± 0.074
TCCGATGCGT | 2.97 ± 2.8

Sequence | switch fluorescence ratio
TCCGATGGGG | 1.084 ± 0.0093
TCCGATGTTT | 1.76 ± 0.27
TCCGATTACG | 1.22 ± 0.037
TCCGATTTGT | 1.02 ± 0.08
TCCGCACAGA | 3.41 ± 0.89
TCCGGAGGCA | 2.2 ± 0.059
TCCGGCTGGT | 0.976 ± 0.024
TCCGGGGGGC | 1.15 ± 0.18
TCCGGGGTGC | 2.36 ± 1
TCCGGGTCTG | 1.03 ± 0.072
TCCGGTACTG | 1.16 ± 0.074
TCCGTCTGTT | 1.003 ± 0.0052
TCCGTGCAAG | 3.03 ± 0.48
TCCGTGCGGT | 1.04 ± 0.066
TCCGTGGGTG | 1.38 ± 0.21
TCCTAGCACT | 1.65 ± 0.12
TCCTAGGCGC | 1.126 ± 0.0049
TCCTAGTCAT | 1.05 ± 0.036
TCCTATGGGG | 0.9886 ± 0.0033
TCCTCACTGT | 1.18 ± 0.034
TCCTCGGGGG | 0.989 ± 0.027
TCCTGAGTAA | 1.55 ± 0.25
TCCTGATTGC | 1.03 ± 0.038
TCCTGGGGAT | 0.99 ± 0.039
TCCTGTATGT | 0.9981 ± 0.0018

Sequence | switch fluorescence ratio
TCCTGTTCTG | 1.02 ± 0.041
TCCTTTAACG | 1.031 ± 0.0014
TCCTTTAAGA | 0.998 ± 0.036
TCCTTTTTTG | 1 ± 0.016
TCGAAAAGGA | 1.02 ± 0.026
TCGAAAATGT | 1.01 ± 0.081
TCGAAAGGCA | 1.04 ± 0.031
TCGAAATTTT | 1 ± 0.022
TCGAACCGAG | 1.2 ± 0.024
TCGAACGTTG | 1.034 ± 0.0026
TCGAACTAGG | 1 ± 0.018
TCGAACTGCT | 1.02 ± 0.02
TCGAAGGGT | 1 ± 0.037
TCGAAGGTTT | 1.01 ± 0.029
TCGAATTTTT | 1.02 ± 0.07
TCGACCCAGC | 1.104 ± 0.0032
TCGACTATTA | 1.05 ± 0.019
TCGAGACTAG | 1.02 ± 0.029
TCGAGCGAAC | 2.1 ± 0.53
TCGAGCTAAT | 1.41 ± 0.11
TCGAGGGGAC | 1.67 ± 1.4
TCGAGGGGAG | 0.978 ± 0.016
TCGAGGGGAT | 1.01 ± 0.027
TCGAGGGGCG | 1.06 ± 0.019
TCGAGGGGGG | 1.05 ± 0.096

Sequence | switch fluorescence ratio
TCGAGGGGTA | 1 ± 0.07
TCGAGTAAAA | 0.9902 ± 0.0039
TCGAGTATGT | 0.983 ± 0.012
TCGAGTGCGT | 0.978 ± 0.014
TCGATAGCGA | 1.19 ± 0.028
TCGATCATAA | 0.9901 ± 0.0015
TCGATGCAAG | 1.23 ± 0.015
TCGATGCAGC | 1.45 ± 0.31
TCGATGGGGA | 1.02 ± 0.015
TCGATTCAGC | 0.979 ± 0.025
TCGCAGGATA | 1.08 ± 0.012
TCGCAGGCCT | 1.033 ± 0.003
TCGCAGTGGG | 1.12 ± 0.034
TCGCCGCTAT | 2.61 ± 0.34
TCGCCTGGGG | 1.1 ± 0.0046
TCGCGAGTAA | 1.04 ± 0.076
TCGCGCGGAG | 1.04 ± 0.024
TCGCGGAGGG | 0.981 ± 0.019
TCGCGGAGTT | 1 ± 0.011
TCGCGGCGCG | 0.972 ± 0.011
TCGCTCATGG | 1.03 ± 0.015
TCGCTGAGG | 0.9921 ± 0.00077
TCGGAAATTT | 1.002 ± 0.0079
TCGGAACTTG | 1.01 ± 0.07
TCGGAAGGGG | 1.17 ± 0.3

Sequence | switch fluorescence ratio
TCGGAATAGA | 1.22 ± 0.26
TCGGAGAAGG | 1.02 ± 0.064
TCGGAGCCAC | 3.16 ± 3
TCGGAGCGGG | 1.102 ± 0.0032
TCGGAGCTTA | 2.977 ± 0.018
TCGGAGCTTC | 4.06 ± 1.4
TCGGAGGGGG | 1.05 ± 0.2
TCGGAGTACT | 1.16 ± 0.03
TCGGATAAGA | 0.995 ± 0.048
TCGGATAGGG | 1.04 ± 0.071
TCGGCATGAT | 0.998 ± 0.011
TCGGCCGCTG | 1.05 ± 0.064
TCGGCCGGGA | 1.05 ± 0.011
TCGGCCGTCC | 1.056 ± 0.009
TCGGCGAATG | 1.02 ± 0.024
TCGGCGTGGG | 1.01 ± 0.025
TCGGGAACAG | 1.02 ± 0.035
TCGGGAGGTT | 1.01 ± 0.031
TCGGGATACT | 1.86 ± 0.32
TCGGGATAGG | 1.05 ± 0.018
TCGGGCGTAT | 1 ± 0.056
TCGGGGAATG | 1.002 ± 0.0032
TCGGGGAGGA | 0.956 ± 0.026
TCGGGGAGTT | 0.982 ± 0.021
TCGGGGATAG | 0.979 ± 0.047

Sequence | switch fluorescence ratio
TCGGGGCAG | 0.976 ± 0.033
TCGGGGCCAT | 1.02 ± 0.062
TCGGGGCGGA | 0.994 ± 0.038
TCGGGGGCAC | 1.45 ± 0.71
TCGGGGGGAT | 1.21 ± 0.36
TCGGGGGGTA | 0.985 ± 0.021
TCGGGGTAAT | 1.03 ± 0.019
TCGGGGTCAG | 0.999 ± 0.02
TCGGGTATTT | 0.998 ± 0.021
TCGGGTCCGT | 0.982 ± 0.027
TCGGGTTCTC | 0.967 ± 0.0091
TCGGGTTCTT | 1.02 ± 0.027
TCGGGTTTTA | 1.03 ± 0.039
TCGGTAAATG | 1.04 ± 0.018
TCGGTCAGTA | 1.002 ± 0.0036
TCGGTCATGG | 0.993 ± 0.023
TCGGTGACAG | 1.01 ± 0.018
TCGGTGCTGG | 0.977 ± 0.018
TCGGTGGAGA | 1.01 ± 0.024
TCGGTGGAGC | 1.02 ± 0.13
TCGGTGTCGG | 0.98 ± 0.037
TCGGTGTTCA | 1 ± 0.011
TCGGTTAGAT | 0.981 ± 0.057
TCGGTTCTAC | 0.9985 ± 0.0099
TCGGTTGAAG | 0.988 ± 0.017
